Data: paper PMC13138739, “Broadly conserved protective epitopes on the lyme disease vaccine antigen, OspA” (PLOS Pathogens, 2026)
Substitutions are numbered along the chain they refer to.

B1: 221-11, recombinant human monoclonal IgG1 (antibody, V domains shown)
VH: EVQLVQSGAEVKKPGESLKISCQSSGYRFTIYWIGWVRQMPGKGLEWMGIIWPGDSDTRYSPSFQGQVTISADKSISTAYLQWSSLKASDTAMYYCVRGIGRYSNWFLDYWGQGTLVTVSS
VL: AIQLTQSPSSLSASVGDRVTITCRASQGFSSALAWYQQKPGKAPKLLIYDASSLESGVPSRFSGSGSGTDFTLTISSLQPEDFATYYCQQFNSYPLTFGGGTKVEIK
notes: source: Expi293 cells, transiently transfected with VH and VL plasmids, purified (Protein A)
B2: 227-1, recombinant human monoclonal IgG1 (antibody, V domains shown)
VH: EVQLVQSGAEVKMPGESLKISCEVSGYSFTSYWIGWVRQMPGKGLEWMGIIYPGDSDTRYSPSFQGQVTISADKSISTAYLQWSSLKASDTAMYYCTRSISRSGPGFSLSWFFDYWGQGTLVTVSS
VL: B1 VL with F29I, S31N, S56R, S67F, T85I, S93G, Y94F, L96N, G100Q, K103R
notes: as for B1
B3: 227-2, recombinant human monoclonal IgG1 (antibody, V domains shown)
VH: B2 VH with L4V, M13K, E23K, V24G, T97V, F107Y, S108I, T120S
VL: B1 VL with F29I, S31N, S56R, S67F, T85I, S93G, Y94F, L96N, G100Q, K103R
notes: as for B1
B4: 221-5, recombinant human monoclonal IgG1 (antibody, V domains shown)
VH: EVQLVQSGAEVKKPGESLKISCKGSGYSFTSYWIGWVRQMPGKGLEWMGIIYPGDSDTRYSPSFQGQVTISADKSISTAYLQWSSLKASDTAMYYCARHLGIDYFFGMDVWGQGTTVTVSS
VL: EIVLTQSPATLSLSPGERATLSCRASQSVSSYLAWYQQKPGQAPRLLIYDASTRDTGIPARFSGSGSGTDFTLTISSLEPEDFAVYYCQHHSNWYTFGQGTKLEIK
notes: as for B1
B5: 221-20, recombinant human monoclonal IgG1 (antibody, V domains shown)
VH: EIQLVQSGTEVKKPGESLRISCRVSGYSFTNYWVAWVRQMPGKGLEWMGIIWPGDSDTRYSPSFQGQVTISADKSINTAYLQWSSLKASDTAVYYCARHLGIDYFFGLDVWGQGTTVTVSS
VL: B4 VL with T53S, D55A, H91L, K102N
notes: as for B1
B6: LA-2 IgG (antibody, V domains shown)
VH: QIQLVQSGPELKKPGETVKISCKASGYTFTDYSMYWVKQAPGKGLKRMGWINTETGEPTYADDFKGRFALSLDTSASTAYLHISNLKNEDTATYFCARGLDSWGQGTSVTVSS
VL: DIQMTQSPSSLSATLGGKVTITCKASQDINKYIAWYQHKPGKGPRLLIHYTSTLQPGNPSRFSGSGSGRDYSFSISNLEAEDIAIYYCLQYDNLQRTFGGGTKVEIK
notes: also called OspA ST 1-specific IgG mAb LA-2
B7: 857-2, recombinant human monoclonal IgG1 (antibody, V domains shown)
VH: EVQLVQSGEEVKKPGESLKISCKGSGYKFSSYWIGWVRQMPGKGLEWMGIIFPGDSDKRYSPSFQGQVTISADKSISTVYLQWSSLKASDTAMYYCARHITTHTYRGFFDFWGQGTLVTVSS
VL: AIQLTQSPSSLSASVGDRVTITCRASQDISSALAWYQQKPGKAPKLLIYDVSSLESGVPSRFSGSGSGTDFTLTISSLQPEDFATYYCQQFNGYPHRLTFGGGTKVEIK
notes: as for B1
B8: 221-7, recombinant human monoclonal IgG1 (antibody, V domains shown)
VH: EVQLVQSGSEVKKPGESLKISCQVSGYSFTSYWIGWVRQMPGKGLERVGFIYPGDSDTRYSPSFQGQVTISADKSISTAYLQWSSLKASDTAMYYCARGILRYFDWFLDYWGQGTLVTVSS
VL: B1 VL with F29I, A32G, L33S, A51V, D70E, P95L
notes: as for B1
B9: 223-5, recombinant human monoclonal IgG1 (antibody, V domains shown)
VH: EVQLVQSGAEVKKPGESLKISCKGSGYSLTSYWIGWVRQMPGKGLEWMGIIWPGDSDTRYSPSFQGQVTISADKSISTAYLQWSSLKASDTAMYYCARYVTVGAFDFWGQGTMVTVSS
VL: B1 VL with F29I, A43T, A51V, S67C, L78V, P95L, L96W, G100Q
notes: as for B1

target: T1, Recombinant non-lipidated OspA serotype 2 (Borrelia afzelii (OspA ST2; strain not …, UniProt P0A3N7); assay: microsphere immunoassay (MIA); recombinant non-lipidated OspA ST 1-7 coupled to Magplex-C microspheres, serial dilutions of mAb, 1 x PBS, 2% BSA, pH 7.4, room temperature 1 hr, PE anti-human IgG Fc; settings: both partners purified
T1 construct: OspA serotype 2, non-lipidated; also called recombinant OspA ST2; ST 2; source: E. coli, purified; provided by Dr. Meredith Finn (Moderna)
T1 sequence (P0A3N7 17-273): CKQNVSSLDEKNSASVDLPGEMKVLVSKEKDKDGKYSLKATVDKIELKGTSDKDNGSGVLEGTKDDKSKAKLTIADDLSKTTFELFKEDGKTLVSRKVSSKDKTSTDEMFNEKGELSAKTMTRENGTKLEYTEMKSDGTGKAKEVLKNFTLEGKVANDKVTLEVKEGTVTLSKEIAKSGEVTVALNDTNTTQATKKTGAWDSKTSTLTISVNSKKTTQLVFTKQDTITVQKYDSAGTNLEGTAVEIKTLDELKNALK

| Binder | binding result |
| --- | --- |
| B1 | binds |
| B2 | binds |
| B3 | binds |

target: T2, Recombinant non-lipidated OspA serotype 4 (Borrelia bavariensis (OspA ST4; strain …, UniProt Q6LBF1, strain); assay: as above; settings: both partners purified
T2 construct: OspA serotype 4, non-lipidated; also called recombinant OspA ST4; ST 4; source: E. coli, purified; provided by Dr. Meredith Finn (Moderna)

| Binder | binding result |
| --- | --- |
| B1 | binds |
| B2 | binds |
| B3 | binds |

target: T3, OspA ST1 (B. burgdorferi B31 allele) on the B. burgdorferi HB19-R1 reporter strain (Borrelia burgdorferi B31 (OspA ST1), UniProt P0CL66); assay: flow cytometry on cells; live B. burgdorferi HB19-R1 reporter strains expressing OspA ST1-7, 10 µg/ml mAb, Alexa 647-labeled goat anti-human IgG; settings: one partner purified
T3 construct: OspA of B. burgdorferi B31 (ST1), lipoprotein on the cell surface; a second wild type ST1 plasmid with silent mutations was used beside the residue 107 mutants; same protein; also called HB19-R1 OspAST1 reporter; source: B. burgdorferi HB19-R1 (lacks ospA), reporter plasmid pGW217, native ospAB promoter, on live cells
T3 sequence (P0CL66 17-273): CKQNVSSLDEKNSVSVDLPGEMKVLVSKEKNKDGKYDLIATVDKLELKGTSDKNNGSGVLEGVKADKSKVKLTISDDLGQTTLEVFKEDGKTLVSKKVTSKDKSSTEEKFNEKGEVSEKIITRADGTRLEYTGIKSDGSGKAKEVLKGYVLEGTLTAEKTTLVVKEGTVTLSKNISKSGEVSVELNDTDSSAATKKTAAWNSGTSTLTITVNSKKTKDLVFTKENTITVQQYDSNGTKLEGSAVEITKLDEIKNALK

| Binder | MFI |
| --- | --- |
| B4 | > 4000 |
| B5 | > 4000 |
| B6 | > 7000 |
| B7 | > 4000 |

target: T4, OspA ST2 (B. afzelii PKo allele) on the B. burgdorferi HB19-R1 reporter strain (Borrelia afzelii PKo (OspA ST2), UniProt P0A3N7); assay: as above; settings: one partner purified
T4 construct: OspA of B. afzelii PKo (ST2); source: B. burgdorferi HB19-R1 (lacks ospA), reporter plasmid, native ospAB promoter of B31, on live cells
T4 sequence (P0A3N7 17-273): as the sequence (P0A3N7 17-273) above

| Binder | MFI | binding result |
| --- | --- | --- |
| B4 | > 4000 | – |
| B5 | > 4000 | – |
| B1 | – | binds |
| B6 | – | no binding (tested: 10 µg/ml) |
| B7 | > 4000 | – |
| B2 | – | binds |
| B3 | – | binds |

target: T5, OspA ST4 (B. bavariensis PBi allele) on the B. burgdorferi HB19-R1 reporter strain (Borrelia bavariensis PBi (OspA ST4), UniProt Q6LBF1, strain); assay: as above; settings: one partner purified
T5 construct: OspA of B. bavariensis PBi (ST4); source: B. burgdorferi HB19-R1 (lacks ospA), reporter plasmid, native ospAB promoter of B31, on live cells

| Binder | MFI | binding result |
| --- | --- | --- |
| B4 | > 4000 | – |
| B5 | > 4000 | – |
| B1 | – | binds |
| B6 | – | no binding (tested: 10 µg/ml) |
| B7 | > 4000 | – |
| B2 | – | binds |
| B3 | – | binds |

target: OspA ST3 (B. garinii PBr allele) on the B. burgdorferi HB19-R1 reporter strain (Borrelia garinii PBr (OspA ST3), UniProt B8F1J0, strain); assay: as above; settings: one partner purified

| Binder | MFI | binding result |
| --- | --- | --- |
| B4 | > 4000 | – |
| B5 | > 4000 | – |
| B6 | – | no binding (tested: 10 µg/ml) |
| B7 | > 4000 | – |
| B2 | – | no binding |

target: T6, Native OspA ST3 on B. garinii PBr (Borrelia garinii PBr (OspA ST3), UniProt B8F1J0, strain); assay: flow cytometry on cells; live Borrelia primary isolates with native OspA ST1-7, 10 µg/ml mAb, Alexa 647-labeled goat anti-human IgG; settings: one partner purified
T6 construct: native OspA (ST3) on the bacterial surface of the primary isolate; also called ST 3- B. garinii PBr; source: endogenous, on live B. garinii PBr

| Binder | binding result |
| --- | --- |
| B6 | no binding (tested: 10 µg/ml) |

target: T7, Native OspA ST4 on B. bavariensis PBi (Borrelia bavariensis PBi (OspA ST4), UniProt Q6LBF1, strain); assay: as above; settings: one partner purified
T7 construct: native OspA (ST4) on the bacterial surface of the primary isolate; also called ST 4- B. bavariensis PBi; source: endogenous, on live B. bavariensis PBi

| Binder | binding result |
| --- | --- |
| B6 | no binding (tested: 10 µg/ml) |

target: T8, Native OspA ST2 on B. afzelii Pko (Borrelia afzelii PKo (OspA ST2), UniProt P0A3N7); assay: as above; settings: one partner purified
T8 construct: native OspA (ST2) on the bacterial surface of the primary isolate; also called ST 2- B. afzelii Pko; source: endogenous, on live B. afzelii Pko
T8 sequence (P0A3N7 17-273): as above

| Binder | binding result |
| --- | --- |
| B6 | no binding (tested: 10 µg/ml) |

target: T9, Recombinant OspAST1 (residues 18–273) from B. burgdorferi B31 (Borrelia burgdorferi B31 (OspA ST1), UniProt P0CL66); assay: BLI; Octet RED96e; mAb captured on AHC sensors (0.4 µg/mL, 5 min), dipped into non-lipidated OspA 21.58 nM to 0.089 nM (10 min), dissociation 30 min; 0.1% BSA in PBS, 0.01% Tween20; global 1:1 model; settings: both partners purified
T9 construct: source: tags removed with TEV protease; not shown: deca-histidine, N-terminal, cleaved; SUMO, N-terminal, cleaved
T9 sequence (P0CL66 18-273): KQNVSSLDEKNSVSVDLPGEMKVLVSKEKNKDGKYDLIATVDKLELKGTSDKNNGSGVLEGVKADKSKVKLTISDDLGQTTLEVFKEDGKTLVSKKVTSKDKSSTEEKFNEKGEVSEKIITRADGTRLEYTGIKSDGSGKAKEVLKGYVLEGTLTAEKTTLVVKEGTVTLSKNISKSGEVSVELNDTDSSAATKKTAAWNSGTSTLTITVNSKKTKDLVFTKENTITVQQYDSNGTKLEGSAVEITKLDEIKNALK

| Binder | Kd [nM] |
| --- | --- |
| B4 | 0.52 |
| B5 | 0.37 |
| B8 | 0.66 |
| B9 | 0.17 |
| B1 | 0.35 |
| B6 | 64 |
| B7 | 0.3 |
| B2 | 1.7 |
| B3 | 0.48 |
